B1: NRC3_wobSeed72_DR2_A9G_o1 (dsDNA)
DNA 1: GCTCGAGTGGGTTACGGGGGCATTCAGGGATGAAGAGCGATTGACAGCGTAGAATGAAGG
DNA 2: CCTTCATTCTACGCTGTCAATCGCTCTTCATCCCTGAATGCCCCCGTAACCCACTCGAGC
B2: NRC3_wobSeed4_DR0_T25G_o1 (dsDNA)
DNA 1: GCCCTACTGGGCCAAGGTCATTGAGCAGTCAAAGCAGCGATTGACAGCGTAGAATGAAGG
DNA 2: CCTTCATTCTACGCTGTCAATCGCTGCTTTGACTGCTCAATGACCTTGGCCCAGTAGGGC
B3: NRC3_wobSeed15_DR0_G16C_o1 (dsDNA)
DNA 1: GCCGAACTAGGTCAACGACAGTGAATCTCCGCACGCGCGATTGACAGCGTAGAATGAAGG
DNA 2: CCTTCATTCTACGCTGTCAATCGCGCGTGCGGAGATTCACTGTCGTTGACCTAGTTCGGC
B4: NRC3_wobSeed86_DR3_G15T_o1 (dsDNA)
DNA 1: GCGCTGCTAGGTCATGTTGGTCAGCTAACGGGTACGGCGATTGACAGCGTAGAATGAAGG
DNA 2: CCTTCATTCTACGCTGTCAATCGCCGTACCCGTTAGCTGACCAACATGACCTAGCAGCGC
B5: NRC3_wobSeed74_DR3_C13G_o1 (dsDNA)
DNA 1: GCTCTAGTTGGTGACGGAGGTCACACACGACGGGTAGCGATTGACAGCGTAGAATGAAGG
DNA 2: CCTTCATTCTACGCTGTCAATCGCTACCCGTCGTGTGTGACCTCCGTCACCAACTAGAGC
B6: NRC3_wobSeed101_DR4_A24C_o1 (dsDNA)
DNA 1: GCCCTTACGGGTCACTCCAGGTTCTAGCATCGGAGTGCGATTGACAGCGTAGAATGAAGG
DNA 2: CCTTCATTCTACGCTGTCAATCGCACTCCGATGCTAGAACCTGGAGTGACCCGTAAGGGC
B7: NRC3_wobSeed2_DR0_C25T_o1 (dsDNA)
DNA 1: GCCCTAGTTGGTCAAGGTCACACATGCTATAGGTACGCGATTGACAGCGTAGAATGAAGG
DNA 2: CCTTCATTCTACGCTGTCAATCGCGTACCTATAGCATGTGTGACCTTGACCAACTAGGGC
B8: NRC3_wobSeed34_DR1_T19A_o1 (dsDNA)
DNA 1: GCATCGAAAGGTCGAAGGAGAGTATACCCACCCGAAGCGATTGACAGCGTAGAATGAAGG
DNA 2: CCTTCATTCTACGCTGTCAATCGCTTCGGGTGGGTATACTCTCCTTCGACCTTTCGATGC
B9: NRC3_wobSeed34_DR1_G17A_o1 (dsDNA)
DNA 1: B8 DNA 1 with G17A, A19T
DNA 2: B8 DNA 2 with T42A, C44T
B10: NRC3_wobSeed123_DR5_A17C_o1 (dsDNA)
DNA 1: GCCCTCGGAGGACAACCGGAGGTCAGAGCTGCCAGAGCGATTGACAGCGTAGAATGAAGG
DNA 2: CCTTCATTCTACGCTGTCAATCGCTCTGGCAGCTCTGACCTCCGGTTGTCCTCCGAGGGC
B11: NRC3_wobSeed87_DR3_C17G_o1 (dsDNA)
DNA 1: GCCGAACTAGGTCATCGAGGACAGTGAATACATTGAGCGATTGACAGCGTAGAATGAAGG
DNA 2: CCTTCATTCTACGCTGTCAATCGCTCAATGTATTCACTGTCCTCGATGACCTAGTTCGGC
B12: NRC3_wobSeed110_DR4_A9G_o1 (dsDNA)
DNA 1: GCTCTGCTGGGTCAACGATGGTCAGCTAATCTGCTAGCGATTGACAGCGTAGAATGAAGG
DNA 2: CCTTCATTCTACGCTGTCAATCGCTAGCAGATTAGCTGACCATCGTTGACCCAGCAGAGC
B13: NRC3_wobSeed75_DR3_A25C_o1 (dsDNA)
DNA 1: GCTCTCGGAGGACACGAAGGTCAGCGCTTTCCAGAGGCGATTGACAGCGTAGAATGAAGG
DNA 2: CCTTCATTCTACGCTGTCAATCGCCTCTGGAAAGCGCTGACCTTCGTGTCCTCCGAGAGC
B14: NRC3_wobSeed5_DR0_A15G_o1 (dsDNA)
DNA 1: GCCCTTACGGGTCAGGGTTATAGCACGGGTGGTACGGCGATTGACAGCGTAGAATGAAGG
DNA 2: CCTTCATTCTACGCTGTCAATCGCCGTACCACCCGTGCTATAACCCTGACCCGTAAGGGC
B15: NRC3_wobSeed135_DR5_G4C_o1 (dsDNA)
DNA 1: GCCCAACTAGGTCATTGACAGGACAGTGAATAGTAAGCGATTGACAGCGTAGAATGAAGG
DNA 2: CCTTCATTCTACGCTGTCAATCGCTTACTATTCACTGTCCTGTCAATGACCTAGTTGGGC
B16: NRC3_wobSeed38_DR1_A25C_o1 (dsDNA)
DNA 1: GCCCTGCTAGGTCAATGGTCAGCTCAAGCAGCTCGCGCGATTGACAGCGTAGAATGAAGG
DNA 2: CCTTCATTCTACGCTGTCAATCGCGCGAGCTGCTTGAGCTGACCATTGACCTAGCAGGGC
B17: NRC3_wobSeed63_DR2_T24C_o1 (dsDNA)
DNA 1: GCCGAACTAGGTCACCAGGACAGCGAAGAGGTTGGAGCGATTGACAGCGTAGAATGAAGG
DNA 2: CCTTCATTCTACGCTGTCAATCGCTCCAACCTCTTCGCTGTCCTGGTGACCTAGTTCGGC
B18: NRC3_wobSeed3_DR0_A22G_o1 (dsDNA)
DNA 1: GCGCTCGGAGGACAAGGTCAGGGCTTTGTCCGTAGAGCGATTGACAGCGTAGAATGAAGG
DNA 2: CCTTCATTCTACGCTGTCAATCGCTCTACGGACAAAGCCCTGACCTTGTCCTCCGAGCGC
B19: NRC3_wobSeed141_DR5_A25C_o1 (dsDNA)
DNA 1: GCAGTCAAAGTTCAGGACGAGGTACCGTAAAGCACGGCGATTGACAGCGTAGAATGAAGG
DNA 2: CCTTCATTCTACGCTGTCAATCGCCGTGCTTTACGGTACCTCGTCCTGAACTTTGACTGC
B20: NRC3_wobSeed17_DR0_T6A_o1 (dsDNA)
DNA 1: GCATAAGTAGGTTAGGGTCATTCAGAAAGTAGGGAAGCGATTGACAGCGTAGAATGAAGG
DNA 2: CCTTCATTCTACGCTGTCAATCGCTTCCCTACTTTCTGAATGACCCTAACCTACTTATGC
B21: NRC3_wobSeed88_DR3_T25C_o1 (dsDNA)
DNA 1: GCTAGCCTAGGTCATGCGGGCCAGCATAGTGTCGGCGCGATTGACAGCGTAGAATGAAGG
DNA 2: CCTTCATTCTACGCTGTCAATCGCGCCGACACTATGCTGGCCCGCATGACCTAGGCTAGC
B22: NRC3_wobSeed88_DR3_A4G_o1 (dsDNA)
DNA 1: B21 DNA 1 with A4G, C25T
DNA 2: B21 DNA 2 with G36A, T57C
B23: NRC3_wobSeed82_DR3_C16G_o1 (dsDNA)
DNA 1: GCATCGAAAGGTCGAGGAGGTGAGTATACACCGTTTGCGATTGACAGCGTAGAATGAAGG
DNA 2: CCTTCATTCTACGCTGTCAATCGCAAACGGTGTATACTCACCTCCTCGACCTTTCGATGC
B24: NRC3_wobSeed82_DR3_T4A_o1 (dsDNA)
DNA 1: B23 DNA 1 with T4A, G16C
DNA 2: B23 DNA 2 with C45G, A57T
B25: NRC3_wobSeed82_DR3_T21A_o1 (dsDNA)
DNA 1: B23 DNA 1 with G16C, T21A
DNA 2: B23 DNA 2 with A40T, C45G
B26: NRC3_wobSeed39_DR1_T23G_o1 (dsDNA)
DNA 1: GCCGAACTAGGTCAAAGGACAGGGAAAGGCGACGTAGCGATTGACAGCGTAGAATGAAGG
DNA 2: CCTTCATTCTACGCTGTCAATCGCTACGTCGCCTTTCCCTGTCCTTTGACCTAGTTCGGC
B27: NRC3_wobSeed39_DR1_G17A_o1 (dsDNA)
DNA 1: B26 DNA 1 with G17A, G23T
DNA 2: B26 DNA 2 with C38A, C44T
B28: NRC3_wobSeed58_DR2_A7T_o1 (dsDNA)
DNA 1: GCATCGTAAGGTCGTGAGGTGAGTATACAGAAAGGCGCGATTGACAGCGTAGAATGAAGG
DNA 2: CCTTCATTCTACGCTGTCAATCGCGCCTTTCTGTATACTCACCTCACGACCTTACGATGC
B29: NRC3_wobSeed64_DR2_o1 (dsDNA)
DNA 1: GCTAGCCTAGGTCATTGGGCCAGTATAGTACGCATCGCGATTGACAGCGTAGAATGAAGG
DNA 2: CCTTCATTCTACGCTGTCAATCGCGATGCGTACTATACTGGCCCAATGACCTAGGCTAGC
B30: NRC3_wobSeed64_DR2_G17T_o1 (dsDNA)
DNA 1: B29 DNA 1 with G17T
DNA 2: B29 DNA 2 with C44A
B31: NRC3_wobSeed64_DR2_C21T_o1 (dsDNA)
DNA 1: B29 DNA 1 with C21T
DNA 2: B29 DNA 2 with G40A

Where a chain is given by its changes, count along the chain named.

Sequence of RARg:RXRa (P13631 whole entry, chain 1 of 2): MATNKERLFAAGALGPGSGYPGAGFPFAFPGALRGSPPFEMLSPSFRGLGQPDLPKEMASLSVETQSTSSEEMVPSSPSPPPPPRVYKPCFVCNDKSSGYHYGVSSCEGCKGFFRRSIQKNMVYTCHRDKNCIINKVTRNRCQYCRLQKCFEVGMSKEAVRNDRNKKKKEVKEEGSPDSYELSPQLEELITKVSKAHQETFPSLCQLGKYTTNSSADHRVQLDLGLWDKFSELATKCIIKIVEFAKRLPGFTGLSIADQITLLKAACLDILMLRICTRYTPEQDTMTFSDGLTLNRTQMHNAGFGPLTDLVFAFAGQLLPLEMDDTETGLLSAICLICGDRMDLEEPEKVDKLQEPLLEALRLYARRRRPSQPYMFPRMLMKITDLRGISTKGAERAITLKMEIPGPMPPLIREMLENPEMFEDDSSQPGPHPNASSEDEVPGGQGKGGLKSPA
Sequence of RARg:RXRa (P19793 whole entry, chain 2 of 2): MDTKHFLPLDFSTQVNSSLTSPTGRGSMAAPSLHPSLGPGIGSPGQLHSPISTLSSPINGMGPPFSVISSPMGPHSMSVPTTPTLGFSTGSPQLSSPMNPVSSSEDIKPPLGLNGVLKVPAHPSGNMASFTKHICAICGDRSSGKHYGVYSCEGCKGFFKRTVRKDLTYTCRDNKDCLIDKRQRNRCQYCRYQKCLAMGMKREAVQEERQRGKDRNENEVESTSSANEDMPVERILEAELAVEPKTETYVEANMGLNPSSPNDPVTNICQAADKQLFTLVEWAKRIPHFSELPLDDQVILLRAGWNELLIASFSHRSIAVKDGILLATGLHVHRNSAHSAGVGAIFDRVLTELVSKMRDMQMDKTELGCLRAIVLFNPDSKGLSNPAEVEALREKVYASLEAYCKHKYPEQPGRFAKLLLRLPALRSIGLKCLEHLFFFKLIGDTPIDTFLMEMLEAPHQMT

In this data set the target is RARg:RXRa (Homo sapiens, UniProt P13631;P19793 full;full). The experiment in a line: no ligand; PBM; 270 nM : 90 nM RXRa; PBS pH 7.4, 2% milk, 0.02% Triton X-100, 1 mM DTT, BSA, 0.4 mg/ml salmon testes DNA. The conditions noted are these: tags: His kept;His cleaved; copies: 1;1; label: surface-attached array probe. In outline:
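Ligand-free nuclear receptor dimers were applied to custom Agilent 4×180K protein-binding microarrays whose double-stranded probes carried direct-repeat seeds, single-nucleotide variants, half-site ablations and random human genomic background sequences in 34-nt variable regions. Incubation lasted 1 h. Binding z-scores were computed against the random background probes from regression-normalized fluorescence.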
Consider B1, for which the binding signal was 3.31 PBM z-score against 500 random probes.

Regarding B2, the binding signal was 3.95 PBM z-score against 500 random probes. The value for B3 was 3.81 PBM z-score against 500 random probes; that for B4 was 3.75 PBM z-score against 500 random probes; that for B5 was 3.87 PBM z-score against 500 random probes. The value for B6 was 4.14 PBM z-score against 500 random probes. Turning to B7, the binding signal was 4.31 PBM z-score against 500 random probes. As for B8, the figure is 3.65 PBM z-score against 500 random probes; as for B9, 3.26 PBM z-score against 500 random probes; as for B10, 3.83 PBM z-score against 500 random probes. As for B11, the figure is 4.03 PBM z-score against 500 random probes; as for B12, 3.45 PBM z-score against 500 random probes; as for B13, 3.49 PBM z-score against 500 random probes.

Take B14: the binding signal was 3.72 PBM z-score against 500 random probes. The value for B15 was 4.34 PBM z-score against 500 random probes; that for B16 was 3.58 PBM z-score against 500 random probes. As to B17, the binding signal is 4.29 PBM z-score against 500 random probes. The value for B18 was 3.61 PBM z-score against 500 random probes; that for B19 was 4.17 PBM z-score against 500 random probes; that for B20 was 4.22 PBM z-score against 500 random probes. As for B21, the figure is 3.97 PBM z-score against 500 random probes; as for B22, 3.93 PBM z-score against 500 random probes. As for B23, the binding signal is 4.27 PBM z-score against 500 random probes. Turning to B24, the binding signal was 4.09 PBM z-score against 500 random probes. As for B25, the figure is 4.02 PBM z-score against 500 random probes; as for B26, 4.06 PBM z-score against 500 random probes. As for B27, the figure is 3.41 PBM z-score against 500 random probes; as for B28, 3.36 PBM z-score against 500 random probes. With B29, the binding signal is 3.78 PBM z-score against 500 random probes.

In the case of B30, the binding signal was 3.69 PBM z-score against 500 random probes. As for B31, the figure is 3.53 PBM z-score against 500 random probes.

The values are drawn from paper PMC6555819, “Comprehensive study of nuclear receptor DNA binding provides a revised framework for understanding receptor specificity”.
